Target: the molecule itself
Assay: SAXS; molecular weight from forward scattering I(0) against a bovine serum albumin standard; free protein at at least three concentrations in 100 mM KCl, 5 mM MgCl2, 10 mM Tris-HCl (pH 7.5), 5% glycerol

B1: CYT-18* (Neurospora crassa mitochondrial tyrosyl-tRNA synthetase lacking the mitochondrial targeting sequence and most of the C-tail) (enzyme)
chain: MLRREFGPKYTAKINEAEENWQARAEAIKKGKKQNTWDLFEERGYVKDTAGTKEHIAELMRTRRIGAYVGIDPTAPSLHVGHLLPLMPLFWMYLEGYKAFTLIGGSTAKIGDPTGRLKSRDHLSSSDATMNMTKIHYQLKKLWENVDTQMRARGYEADWARKRGIVNNNHWWNKQPMLEVLRRVGHALRIGPMLSRDTVKNKMTQGDGVSFAEFTYPIMQGWDWFELFYQQGVQMQIGGSDQYGNIISGLEVVKAARESEPDPQERKYVTPKTALDECVGFTVPLLTDSSGAKFGKSAGNAIWLDPYQTSVFDFYGYFVRRSDQEVENLLKLFTFMPISEITKTMEEHIKDPSKRVAQHTLAREVVTLVHGKQEASAAEDQHRMMYTGQMTIPQVSRAKDAATGGDQYKTISDQPVTLNNAPRIDMILPESLIMGKSIGRILYAAGLASSTTEGHKLAAAQGCYVGGAHRAGGENVTMNPDLISFMPVKLWFPGETQRYLINGNLLILRKGKHNVRVIQMVSDVEYAASGQTYPGQSFTGAVRKLNEIMKNL
notes: extra N-terminal methionine of the expression construct; stop codons introduced after Leu583; Derived from pEX560 (wild-type CYT-18, amino acids 33-669); also called CYT18/ΔC-tail; N. crassa mtTyrRS
stoichiometry N: 2
